Values quoted from earlier work in article PMC9456110.
Read-outs that look alike come from different tables or passages of the source. Each block holds one substance with its values, some of them ahead of it.

Tests used:
[1] = molecular target: Calmodulin (Homo sapiens) (UniProt P0DP23)
[2] = molecular target: Calmodulin (Homo sapiens) (UniProt P0DP23); remark: listed apart in the source
[3] = molecular target: PIP (Homo sapiens) (UniProt P12273)
[4] = molecular target: Calmodulin (Homo sapiens) (UniProt P0DP23); remark: listed apart in the source
[5] = molecular target: Calmodulin (Homo sapiens) (UniProt P0DP23); remark: listed apart in the source
[6] = molecular target: Calmodulin (Homo sapiens) (UniProt P0DP23); remark: listed apart in the source

UniProt P12273, sequence (P12273 29-146): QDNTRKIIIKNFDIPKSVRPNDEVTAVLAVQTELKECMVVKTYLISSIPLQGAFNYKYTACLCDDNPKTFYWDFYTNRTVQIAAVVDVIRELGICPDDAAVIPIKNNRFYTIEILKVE

Kd [3]: 570 nM
Substance: AQP5 C-terminus (from UniProt P55064)

Kd [6]: 3.6 µM
Substance: AQP4 C-terminus (from UniProt P55087)

Continued, substance first:

Substance: AQP6 N-terminus (from UniProt Q8C4A0)
Kd [1]: 790 nM

Substance: AQP4 N-terminus (from UniProt P55087)
Kd [2]: 3.4 µM

Substance: AQP6 N-terminus (from UniProt Q13520)
Kd [4]: 1780 nM

Substance: AQP4 (from UniProt P55087)
Kd [5]: 29 µM
